2 molecules from publication PMC5564220 (Cell reports, 2017) can be followed below.

The target in experiment [1] is T1, Rvb2 (S. cerevisiae, UniProt Q12464 1-471). As to the kind of experiment: intact denatured mass spectrometry.
Experiment [2] has as its target T1, Rvb2. As to the kind of experiment: native MS.
Experiment [3] addresses T2, Rvb1/Rvb2 complex (untagged hexamer) (S. cerevisiae, UniProt Q03940 1-463; Q12464 1-471). As to the kind of experiment: SEC-MALS.
Experiment [4] has as its target T2, Rvb1/Rvb2 complex (untagged hexamer). As to the kind of experiment: native MS.

Where “and” joins values, the source holds several entries; their conditions need not be identical. Identical values can stand only once.

T2 sequence (Q12464 whole entry, one chain of several): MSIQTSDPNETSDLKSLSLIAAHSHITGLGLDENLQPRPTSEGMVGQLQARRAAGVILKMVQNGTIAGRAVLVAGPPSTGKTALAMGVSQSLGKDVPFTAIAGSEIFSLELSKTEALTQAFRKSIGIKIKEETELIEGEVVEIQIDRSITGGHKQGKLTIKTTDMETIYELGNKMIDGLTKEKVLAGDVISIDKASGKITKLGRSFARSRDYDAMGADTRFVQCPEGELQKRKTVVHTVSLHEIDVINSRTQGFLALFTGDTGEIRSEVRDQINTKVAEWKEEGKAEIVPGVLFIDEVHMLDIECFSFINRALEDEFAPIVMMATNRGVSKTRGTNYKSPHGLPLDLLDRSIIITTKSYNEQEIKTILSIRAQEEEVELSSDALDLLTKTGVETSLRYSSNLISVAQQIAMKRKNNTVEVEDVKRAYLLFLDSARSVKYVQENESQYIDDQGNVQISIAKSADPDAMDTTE
T1 sequence (Q12464 whole entry): as the sequence (Q12464 whole entry, one chain of several) above

B1: Rvb1 (enzyme, S. cerevisiae, UniProt Q03940 1-463, looked up)
chain: MVAISEVKENPGVNSSNSGAVTRTAAHTHIKGLGLDESGVAKRVEGGFVGQIEAREACGVIVDLIKAKKMSGRAILLAGGPSTGKTALALAISQELGPKVPFCPLVGSELYSVEVKKTETLMENFRRAIGLRIKETKEVYEGEVTELTPEDAENPLGGYGKTISHVIVGLKSAKGTKTLRLDPTIYESIQREKVSIGDVIYIEANTGAVKRVGRSDAYATEFDLETEEYVPLPKGEVHKKKEIVQDVTLHDLDVANARPQGGQDVISMMGQLLKPKKTEITEKLRQEVNKVVAKYIDQGVAELIPGVLFIDEVNMLDIEIFTYLNKALESNIAPVVVLASNRGMTTVRGTEDVISPHGVPPDLIDRLLIVRTLPYDKDEIRTIIERRATVERLQVESSALDLLATMGTETSLRYALQLLAPCGILAQTSNRKEIVVNDVNEAKLLFLDAKRSTKILETSANYL
Consider B1, for which the “stoichiometry N” value in experiment [1] was 1 Rvb1 per Rvb2 (3:3); in experiment [2] it was 1 Rvb1 per Rvb2 (3:3 in the hexamer).

B2: MBP-Ino80INS (insertion domain of the Ino80 ATPase, residues 1022-1294, MBP fusion with C-terminal histidine tag) (domain or fragment, yeast, UniProt P53115 1022-1294, looked up)
chain: VDSPFSFTTFGKTTSMLTASVANNNSSVISNSNMNLSSMSSNNISNGKFTDLIYSSRNPIKYSLPRLIYEDLILPNYNNDVDIANKLKNVKFNIFNPSTNYELCLFLSKLTGEPSLNEFFRVSTTPLLKRVIERTNGPKNTDSLSFKTITQELLEVTRNAPSEGVMASLLNVEKHAYEREYLNCIQRGYHPNVSAPPVTIEVLGSSHVTNSINNELFDPLISQALSDIPAITQYNMHVKKGIPVEDFPKTGLFPEPLNKNFSSNISMPSMDRF
Regarding B2, the “stoichiometry N” value in experiment [3] is ≥ 2 copies of Ino80INS per Rvb1/Rvb2 dodecamer; in experiment [4], 3 copies of Ino80INS per Rvb1/Rvb2 dodecamer and 1 copies of MBP-Ino80INS per Rvb1/Rvb2 hexamer and 2 copies of Ino80INS per Rvb1/Rvb2 dodecamer.
